In paper doi:10.1101/2020.03.05.978833:

System: FasR wild-type (His6, EMSA) (Mycobacterium tuberculosis H37Rv)
Test: EMSA

Q: With PfasMT promoter fragment (398 bp) as the substance, how does the Kd read?
A: Its Kd is 83 nM.
